Here are results for 2 molecules from PMC3931408 (Journal of Agricultural and Food Chemistry, 2014).

Series [1] addresses L-arabinose isomerase from Lactobacillus reuteri DSMZ 17509 (Lactobacillus reuteri). Briefly: SEC; 190 mL Sephacryl S300 column, 50 mM potassium phosphate buffer pH 7.0, 150 mM NaCl; molecular weight marker kit for gel filtration; oligomer size from the apparent mass against the calculated subunit mass.
Series [2] concerns the molecule itself. Described as above.

As to “L-arabinose isomerase from Lactobacillus reuteri DSMZ 17509 (enzyme)”, the stoichiometry N (commonly the number of molecules, sites or subunits per partner or assembly) in series [1] is 6.

B1: D-xylose isomerase from Lactobacillus reuteri DSMZ 17509 (enzyme, UniProt Q5QG16 1-449, looked up)
chain: MADLWNNIDKIEYEGPHKSIKSGLFYQYYNPDEVILGKKMKDWLRFSVAYWHTFDQRLVDPFGDGTAQRPYDKYSDPMDCALAKVDYAFEFYNKLGVDFLCFHDRDLAPEGDTLRETNKNLDRVVDKIVEYQKATGMKVLWNTSNLFTNPRFLEGAGTAPSAEIYAYAAAQLKHSLEVGKRVGSENYVFWGGREGYESLWNTDMKREQSHIAKFFHMAKDYANEIGFDAQMLLEPKPKEPTTHQYDFDAATTINFMCEYGLDKDFKLNLEGNHANLAGHTYQHEIRVAREAGLLGSLDANQGDKLIGWDIDEYPSNLYETTAAMWEVIQNGSIGPRGGLNFDAKPRRTSFKPVDLFYGHIVGMDSFAAGLRVAAAMKEDGFLDDIIKERYSTWDEGLGKSIEDGNENFASLEEKVIDTPQSELLAATHSDHLEEIKDTINHYMIETLAK
Regarding B1, the “stoichiometry N” value in series [2] is 4.
